This note sets out measurements from paper PMC5453625.

Usually Kd stands for the free concentration of one partner at which half of the binding sites on the other are occupied at equilibrium, for simple one-to-one binding. What is called koff is the first-order rate constant of dissociation. A low value points to slow dissociation. What is called kon is the rate constant with which the complex forms. A low value points to slow association.

The target in experiment [1] is human nectin-1 ectodomain (amino acids 30-335) (human) (UniProt Q15223). The experiment is described as follows: SPR; BIAcore 3000, CM5 chip; […]) immobilised; […]; 25 C; HBS-EP (10 mM HEPES pH 7.4, 150 mM NaCl, 3 mM EDTA, 0.005% Tween 20); […]. On the technique in general: SPR reads the build-up and loss of mass on a sensor chip optically.
UniProt Q15223, sequence (Q15223 30-335): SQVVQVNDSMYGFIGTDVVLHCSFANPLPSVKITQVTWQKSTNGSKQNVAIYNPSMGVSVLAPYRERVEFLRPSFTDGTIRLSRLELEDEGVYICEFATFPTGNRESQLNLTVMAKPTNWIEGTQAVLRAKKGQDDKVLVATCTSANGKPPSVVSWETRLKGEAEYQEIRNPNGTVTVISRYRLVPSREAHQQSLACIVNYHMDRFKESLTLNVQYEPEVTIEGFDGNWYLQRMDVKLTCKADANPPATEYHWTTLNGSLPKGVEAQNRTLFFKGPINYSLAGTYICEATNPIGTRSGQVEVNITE
For experiment [2], the target named is swine nectin-1 ectodomain (amino acids 30-335) (swine) (UniProt Q9GL76). The experiment is described as above.
UniProt Q9GL76, sequence (Q9GL76 30-335): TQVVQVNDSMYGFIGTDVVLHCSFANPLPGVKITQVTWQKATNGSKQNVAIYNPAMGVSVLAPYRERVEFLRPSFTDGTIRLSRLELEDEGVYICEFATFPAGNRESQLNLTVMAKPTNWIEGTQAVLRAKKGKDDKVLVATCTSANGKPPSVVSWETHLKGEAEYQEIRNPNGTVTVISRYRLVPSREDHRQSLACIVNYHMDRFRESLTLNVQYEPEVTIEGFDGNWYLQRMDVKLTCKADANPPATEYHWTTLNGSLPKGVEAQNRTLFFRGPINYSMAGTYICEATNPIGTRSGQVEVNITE

Regarding “PRV gD284 (pseudorabies virus glycoprotein D, residues 1-284, lacking the membrane-proximal loop) (domain or fragment)”, in experiment [1], the dissociation constant (Kd) stood at 0.0161 µM, the koff came to 0.0117 s⁻¹ and the kon stood at 725000 M⁻¹ s⁻¹. In experiment [2], the Kd amounted to 0.0184 µM, the koff was 0.0211 s⁻¹ and the kon was found to be 1.15e+06 M⁻¹ s⁻¹.
